According to paper PMC11910552, “Regulation of acetyl-CoA biosynthesis via an intertwined acetyl-CoA synthetase/acetyltransferase complex” (Nature Communications, 2025):
Numbering of substitutions follows the chain as printed. Each block holds one molecule with its values, some of them ahead of it.

B1: GCN5-related N-acetyltransferase AcuA (Bacillus subtilis) (enzyme)
chain: MEHHKTYHSANIKTATGSLLIEGPVSPEDLAGYEFHKDLTAFRPPREQHEALVDIAGLPEGRIIIARDGRTIVGYVTYLYPDPLERWSEGNMEDLIELGAIEVAPDYRGCAVGKTLLTVSMMDEQMENYIVMTTEYYWHWDLKGMKKDVWEYRKIMEKMMNAGGLVWFATDEPEISSHPANCLMARIGKNVSQESIEQFDRLRFYHRYMY
B2: GST-AcuA_E102Q (enzyme, Bacillus subtilis)
chain: B1 chain with E102Q
notes: source: E. coli BL21(DE3), purified
B3: Acetyl-CoA synthetase AcsA (Bacillus subtilis) (enzyme)
chain: MNLKALPAIEGDHNLKNYEETYRHFDWAEAEKHFSWHETGKLNAAYEAIDRHAESFRKNKVALYYKDAKRDEKYTFKEMKEESNRAGNVLRRYGNVEKGDRVFIFMPRSPELYFIMLGAIKIGAIAGPLFEAFMEGAVKDRLENSEAKVVVTTPELLERIPVDKLPHLQHVFVVGGEAESGTNIINYDEAAKQESTRLDIEWMDKKDGFLLHYTSGSTGTPKGVLHVHEAMIQQYQTGKWVLDLKEEDIYWCTADPGWVTGTVYGIFAPWLNGATNVIVGGRFSPESWYGTIEQLGVNVWYSAPTAFRMLMGAGDEMAAKYDLTSLRHVLSVGEPLNPEVIRWGHKVFNKRIHDTWWMTETGSQLICNYPCMDIKPGSMGKPIPGVEAAIVDNQGNELPPYRMGNLAIKKGWPSMMHTIWNNPEKYESYFMPGGWYVSGDSAYMDEEGYFWFQGRVDDVIMTSGERVGPFEVESKLVEHPAIAEAGVIGKPDPVRGEIIKAFIALREGFEPSDKLKEEIRLFVKQGLAAHAAPREIEFKDKLPKTRSGKIMRRVLKAWELNLPAGDLSTMED
notes: AcsA, acetyl-CoA synthetase of Bacillus subtilis; gene amplified from genomic DNA of strain 3610; catalytic lysine K549; the gene came from strain 3610; Monomer and dimer seen by mass photometry; also called Ac-CoA synthetase; source: E. coli BL21(DE3), purified (HisTrap, SEC)

Columns and labels:
AcuA = target: T1, AcuA (Bacillus subtilis, UniProt P39065); experiment: isothermal titration calorimetry, one binding site model
T1 construct: monomer 21 kDa by mass photometry

[1] = target: T2, Acetyl-CoA synthetase AcsA (Bacillus subtilis) (Bacillus subtilis) (UniProt P39062)
T2 sequence: B3 chain

[2] = target: B3; experiment: cell-based or functional assay
[3] = target: B3; experiment: pull-down; 200 μg GST-tagged protein immobilised on GST-Sepharose beads in spin columns, 200 μg partner added in SEC buffer (20 mM HEPES-Na pH 7.5, 200 mM NaCl, 20 mM KCl, 20 mM MgCl2), 30 min, three washes, elution with 20 mM GSH, Coomassie-stained SDS-PAGE; without Ac-CoA (also with 1 mM ATP, 1 mM AMP or 130 μM CoA, or with AcuB and AcuC added); conditions: both partners purified
purified protein = substrate: CC(=O)O; experiment: purified protein; conditions: without AcuA; 1 mM CoA, ATP 2.5 mM or 2 mM, 0.1 mM DTT, room temperature
[4] = target: the molecule itself; experiment: mass photometry; TwoMP mass photometer, SEC buffer, 37.5 nM final protein concentration; proteins alone or 37.5 nM AcsA with 37.5 nM AcuA

Kd (AcuA): 9.47 ± 0.51 µM
Molecule: CC(=O)SCCNC(=O)CCNC(=O)[C@H](O)C(C)(C)COP(=O)(O)OP(=O)(O)OC[C@H]1O[C@@H](n2cnc3c(N)ncnc32)[C@H](O)[C@@H]1OP(=O)(O)O [Ac-CoA]

AcsA activity (HPLC) with 0-1 mM AcuA C-terminus peptide; reduction of activity at 1 mM [1]: 90%
Molecule: RLRFYHRYMY [AcuA C-terminus peptide (201-…-210)]

Molecule: B1
Vmax of Ac-CoA production by AcsA (HPLC) at AcsA:AcuA ratios 1:0.5, 1:1, 1:2, 1:5: 1834 down to 390 nmol mg^−1 min^−1 (without AcuA 2167) [2]: 1830 nmol/mg/min

Molecule: B2
binding result [3]: binds

Molecule: B3
Km (purified protein): 430 µM
Vmax (purified protein): 2.17 µmol/min/mg
stoichiometry N [4]: 2
